Experiment in all cases: fluorescence anisotropy
A general note: Polarisation of emitted light reports the rotation of a fluorescent probe.

The target of one data set is T1, Prp2;Spp2 (Saccharomyces cerevisiae?;Saccharomyces …, UniProt P20095;Q02521 1-876;36-185, |).
T1 sequence 1: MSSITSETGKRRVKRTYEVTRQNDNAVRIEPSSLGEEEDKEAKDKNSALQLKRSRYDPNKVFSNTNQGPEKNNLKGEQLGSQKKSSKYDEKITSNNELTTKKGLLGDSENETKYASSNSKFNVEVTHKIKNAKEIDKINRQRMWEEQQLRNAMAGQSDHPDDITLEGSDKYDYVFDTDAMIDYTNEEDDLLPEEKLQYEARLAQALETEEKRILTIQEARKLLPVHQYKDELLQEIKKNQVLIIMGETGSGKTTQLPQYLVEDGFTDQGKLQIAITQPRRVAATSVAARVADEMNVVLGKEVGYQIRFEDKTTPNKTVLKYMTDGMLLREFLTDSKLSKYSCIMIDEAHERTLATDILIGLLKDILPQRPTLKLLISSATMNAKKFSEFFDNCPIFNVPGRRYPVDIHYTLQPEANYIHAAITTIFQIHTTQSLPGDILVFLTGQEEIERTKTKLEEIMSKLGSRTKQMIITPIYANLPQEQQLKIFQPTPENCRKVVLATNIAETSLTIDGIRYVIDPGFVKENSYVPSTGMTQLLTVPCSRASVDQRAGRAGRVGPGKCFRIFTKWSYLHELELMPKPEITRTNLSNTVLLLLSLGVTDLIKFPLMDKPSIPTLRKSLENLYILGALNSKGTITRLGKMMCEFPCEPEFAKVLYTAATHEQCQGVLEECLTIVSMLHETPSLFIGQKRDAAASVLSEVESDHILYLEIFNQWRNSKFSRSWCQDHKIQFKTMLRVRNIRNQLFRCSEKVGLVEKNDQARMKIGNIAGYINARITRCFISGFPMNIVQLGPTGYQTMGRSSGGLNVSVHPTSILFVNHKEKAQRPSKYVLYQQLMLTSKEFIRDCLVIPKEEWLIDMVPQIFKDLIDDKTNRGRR
T1 sequence 2: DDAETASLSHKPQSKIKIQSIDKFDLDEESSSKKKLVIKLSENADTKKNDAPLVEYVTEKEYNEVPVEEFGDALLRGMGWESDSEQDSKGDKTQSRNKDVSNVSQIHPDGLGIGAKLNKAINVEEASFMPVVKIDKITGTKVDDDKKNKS

Data set [1] addresses T2, Prp2 (UniProt P20095 1-876).
T2 sequence: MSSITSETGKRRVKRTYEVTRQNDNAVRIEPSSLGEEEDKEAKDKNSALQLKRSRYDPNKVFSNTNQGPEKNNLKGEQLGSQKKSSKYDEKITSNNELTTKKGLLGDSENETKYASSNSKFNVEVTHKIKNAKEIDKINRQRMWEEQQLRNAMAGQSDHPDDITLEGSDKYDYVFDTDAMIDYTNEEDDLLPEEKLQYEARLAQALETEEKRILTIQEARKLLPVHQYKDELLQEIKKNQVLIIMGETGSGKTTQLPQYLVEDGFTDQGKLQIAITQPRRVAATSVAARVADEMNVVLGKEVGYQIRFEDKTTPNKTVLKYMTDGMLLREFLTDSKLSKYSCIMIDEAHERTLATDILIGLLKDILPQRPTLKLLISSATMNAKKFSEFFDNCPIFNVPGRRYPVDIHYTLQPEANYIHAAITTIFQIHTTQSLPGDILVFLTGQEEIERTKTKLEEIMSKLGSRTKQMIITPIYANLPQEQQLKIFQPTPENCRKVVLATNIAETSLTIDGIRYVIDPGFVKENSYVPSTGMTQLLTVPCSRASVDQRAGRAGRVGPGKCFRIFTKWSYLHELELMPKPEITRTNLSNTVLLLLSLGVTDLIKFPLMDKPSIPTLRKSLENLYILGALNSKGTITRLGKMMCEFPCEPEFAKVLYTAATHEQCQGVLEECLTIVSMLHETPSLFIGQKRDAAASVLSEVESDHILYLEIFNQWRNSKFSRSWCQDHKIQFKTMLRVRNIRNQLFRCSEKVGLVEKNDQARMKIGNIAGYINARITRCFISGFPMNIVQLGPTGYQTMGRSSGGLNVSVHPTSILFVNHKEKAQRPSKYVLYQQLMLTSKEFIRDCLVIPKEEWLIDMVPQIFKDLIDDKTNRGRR

Data set [2] has as its target T2, Prp2. This is another data set of the same source.
A further data set deals with T3, Spp2 (UniProt Q02521 36-185).
T3 sequence: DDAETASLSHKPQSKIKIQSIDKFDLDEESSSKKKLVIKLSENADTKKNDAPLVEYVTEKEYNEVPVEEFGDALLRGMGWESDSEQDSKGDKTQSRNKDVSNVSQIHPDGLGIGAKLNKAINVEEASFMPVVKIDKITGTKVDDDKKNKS

Where two headings read alike, the source gives them in different places.

For GGCCGCGAGAAAAAAAAAAAAAAA (ssRNA) [24-nt ssRNA], the results for the binding result with Prp2;Spp2 and with Spp2 were “binds” and “no binding”, respectively. Besides, the Kd – broadly, the equilibrium constant for the complex coming apart – with Prp2 [1] was 53 ± 5 nM; in the data set with Prp2 [2], 70 ± 11 nM.

The values above are taken from publication PMC4285774.
